Assay results from patent publication CN104628856A (INST RADIATION MED AMMS PLA; BEIJING C & N INTERNAT SCI …, dated 2015).

Target: T1, B淋巴细胞刺激因子(BLyS)蛋白 (human, UniProt Q9Y275 134-285, biotinylated (生物素化, sites not stated))
T1 construct: The protein was harvested from the culture supernatant, so it may be the soluble form; It was biotinylated for the ForteBio assay; also called BAFF; 抗原BLyS; not shown: His tag from vector p3457-his
Assay: ForteBio (BLI): biotinylated BLyS at 20 μg/ml loaded, B-11ScFv in 2-fold dilutions from 25 to 0.78125 μg/ml in PBS pH 7.4

T1 sequence (Q9Y275 134-285): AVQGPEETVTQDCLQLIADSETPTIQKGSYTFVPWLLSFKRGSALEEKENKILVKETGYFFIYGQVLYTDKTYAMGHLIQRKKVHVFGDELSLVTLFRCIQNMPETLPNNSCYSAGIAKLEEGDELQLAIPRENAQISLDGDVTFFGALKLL

B1: 抗BLyS单链抗体B-11ScFv (scFv, V domains shown)
VH: EVQLQESGGGLVQPGGSLRLSCAASGFTFSRYWMLWVRQAPGKGLVWVSRINTDGSSTWYADSVKGRFTISRDNAKNTLYLQMNSLRAEDTAVYYCARDQDGVGATHDYWGQGTLVTVSS
notes: Secreted from 293E cells out of plasmid p3457B-11ScFv and purified on a nickel column, about 30 kDa; also called 11号ScFv; 抗人BLyS ScFv抗体; not shown: His tag from vector p3457his (Ni column purification, anti-His blot)
In the case of B1, the Kd is reported as 3.08 nM.
